Source: patent publication US20240060046A1

Target: CD20 on CD20+ human Burkitt's lymphoma cell lines (Ramos, Raji) (human) (UniProt P11836)
Experiment: cell-based or functional assay

UniProt P11836, sequence (P11836 whole entry): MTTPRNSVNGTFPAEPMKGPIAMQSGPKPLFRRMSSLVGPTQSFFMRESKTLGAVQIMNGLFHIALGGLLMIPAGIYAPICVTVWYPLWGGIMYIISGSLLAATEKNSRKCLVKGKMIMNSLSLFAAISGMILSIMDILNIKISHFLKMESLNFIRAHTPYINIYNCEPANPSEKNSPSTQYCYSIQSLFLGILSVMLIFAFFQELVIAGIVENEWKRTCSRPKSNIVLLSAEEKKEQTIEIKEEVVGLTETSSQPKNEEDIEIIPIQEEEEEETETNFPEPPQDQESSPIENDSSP

Substance “Rituximab (Mabthera or Rituxan) (antibody)” has a Viable Raji cells (%), long-term ADCC, AB-101 + RTX, 24 hrs (mean of 9 AB-101 batches) of 23.9%, a Viable Raji cells (%), long-term ADCC, AB-101 + RTX, 48 hrs (mean of 9 AB-101 batches) of 11.7% and a Viable Raji cells (%), long-term ADCC, AB-101 + RTX, 72 hrs (mean of 9 AB-101 batches) of 10.1%. For the same substance, the Viable Ramos cells (%), long-term ADCC, AB-101 + RTX, 24 hrs (mean of 9 AB-101 batches) was 47.6%, the Viable Ramos cells (%), long-term ADCC, AB-101 + RTX, 48 hrs (mean of 9 AB-101 batches) was 28.1% and the Viable Ramos cells (%), long-term ADCC, AB-101 + RTX, 72 hrs (mean of 9 AB-101 batches) was 19%. The lysis of Raji target cells at the end of 72 hour co-culture, AB-101 combined with rituximab, E:T 1:1 was 90% and the lysis of Ramos target cells at the end of 72 hrs co-culture, AB-101 combined with rituximab, E:T 1:1 was 80%.
